Assay results reported in the supplement of paper PMC10065799, “High-throughput profiling of sequence recognition by tyrosine kinases and SH2 domains using bacterial peptide display” (eLife, 2023).

Columns and labels:
c-Src SH2 = experiment: SH2 binding enrichment of the phosphorylated peptide, bacterial display (enrichment ratio); higher = better substrate or ligand; peptides without Tyr show the background
Grb2 SH2 = Grb2 SH2 (UniProt P62993); experiment: as above
SHP2-C SH2 = experiment: as above
EPHB1 = EPHB1 (UniProt P54762); experiment: phosphorylation enrichment, bacterial display (enrichment ratio); higher = better substrate or ligand; peptides without Tyr show the background
Jak2 = Jak2 (UniProt O60674); experiment: as above
EPHB2 = EPHB2 (UniProt P29323); experiment: as above
FGFR3 = FGFR3 (UniProt P22607); experiment: as above
c-Src = experiment: as above
Fer (mouse) = experiment: as above
Fyn = Fyn (UniProt P06241); experiment: as above
Hck = Hck (UniProt P08631); experiment: as above
AncSZ = experiment: as above
FGFR1 = FGFR1 (UniProt P11362); experiment: as above
c-Abl (mouse) = experiment: as above
MERTK = MERTK (UniProt Q12866); experiment: as above
Fes = Fes (UniProt P07332); experiment: as above
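Wherever SH2 binding enrichment of the phosphorylated peptide, bacterial display is given: peptide library displayed on the E. coli surface as eCPX fusions, selected cells deep-sequenced, score is each peptide's frequency after selection divided by its frequency in the input.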
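Wherever phosphorylation enrichment, bacterial display is given: 11-residue human phosphosite peptides and single-mutation variants displayed on the E. coli surface, counted by deep sequencing, each peptide's frequency after selection divided by its frequency in the unselected input library; frequency after pTyr selection over input frequency; kinase dosed for 20-30% of maximal phosphorylation in three min.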

Sequence of FGFR3 (P22607 whole entry, looked up): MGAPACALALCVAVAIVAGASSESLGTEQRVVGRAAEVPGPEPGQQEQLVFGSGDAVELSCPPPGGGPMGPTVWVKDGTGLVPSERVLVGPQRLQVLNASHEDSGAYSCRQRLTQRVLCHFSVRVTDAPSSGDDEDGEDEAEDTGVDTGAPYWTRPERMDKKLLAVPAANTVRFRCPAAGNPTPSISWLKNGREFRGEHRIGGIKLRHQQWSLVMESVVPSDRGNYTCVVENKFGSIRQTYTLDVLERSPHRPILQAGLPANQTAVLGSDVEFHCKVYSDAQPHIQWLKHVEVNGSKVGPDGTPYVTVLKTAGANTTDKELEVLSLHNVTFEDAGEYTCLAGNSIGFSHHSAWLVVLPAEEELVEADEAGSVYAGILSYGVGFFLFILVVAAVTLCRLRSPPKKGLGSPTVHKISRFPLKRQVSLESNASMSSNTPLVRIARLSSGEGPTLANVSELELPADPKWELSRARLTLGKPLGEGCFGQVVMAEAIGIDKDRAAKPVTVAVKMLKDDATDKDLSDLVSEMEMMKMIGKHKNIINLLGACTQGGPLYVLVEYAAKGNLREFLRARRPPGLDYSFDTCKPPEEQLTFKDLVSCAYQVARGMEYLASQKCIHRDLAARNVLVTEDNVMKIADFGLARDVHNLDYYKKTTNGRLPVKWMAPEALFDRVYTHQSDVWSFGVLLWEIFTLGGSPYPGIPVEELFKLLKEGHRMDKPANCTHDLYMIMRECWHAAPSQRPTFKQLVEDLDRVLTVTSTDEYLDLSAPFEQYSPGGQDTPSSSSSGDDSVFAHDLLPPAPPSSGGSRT
Sequence of Fes (P07332 whole entry, looked up, the tested form may be a part): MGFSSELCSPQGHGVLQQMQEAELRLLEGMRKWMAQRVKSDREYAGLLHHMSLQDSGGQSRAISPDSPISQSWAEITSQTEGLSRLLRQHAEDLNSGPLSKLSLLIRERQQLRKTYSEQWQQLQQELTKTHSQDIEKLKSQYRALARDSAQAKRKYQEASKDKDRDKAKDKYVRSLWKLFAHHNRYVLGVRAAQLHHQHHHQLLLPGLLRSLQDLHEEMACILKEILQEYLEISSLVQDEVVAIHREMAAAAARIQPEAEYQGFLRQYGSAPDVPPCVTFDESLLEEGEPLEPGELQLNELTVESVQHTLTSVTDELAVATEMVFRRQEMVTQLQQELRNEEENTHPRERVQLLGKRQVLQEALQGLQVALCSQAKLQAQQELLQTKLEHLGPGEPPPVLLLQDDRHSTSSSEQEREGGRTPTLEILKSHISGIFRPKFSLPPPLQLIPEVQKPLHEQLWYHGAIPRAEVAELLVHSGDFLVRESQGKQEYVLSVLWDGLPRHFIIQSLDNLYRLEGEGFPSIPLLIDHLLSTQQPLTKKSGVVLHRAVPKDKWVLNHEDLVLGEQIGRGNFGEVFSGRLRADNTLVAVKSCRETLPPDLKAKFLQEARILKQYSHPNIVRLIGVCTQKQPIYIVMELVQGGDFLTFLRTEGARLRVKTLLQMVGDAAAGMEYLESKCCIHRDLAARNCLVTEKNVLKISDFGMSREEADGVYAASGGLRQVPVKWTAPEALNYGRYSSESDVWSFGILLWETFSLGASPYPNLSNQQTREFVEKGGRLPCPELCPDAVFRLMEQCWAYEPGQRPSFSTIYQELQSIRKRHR
Sequence of EPHB1 (P54762 whole entry, looked up): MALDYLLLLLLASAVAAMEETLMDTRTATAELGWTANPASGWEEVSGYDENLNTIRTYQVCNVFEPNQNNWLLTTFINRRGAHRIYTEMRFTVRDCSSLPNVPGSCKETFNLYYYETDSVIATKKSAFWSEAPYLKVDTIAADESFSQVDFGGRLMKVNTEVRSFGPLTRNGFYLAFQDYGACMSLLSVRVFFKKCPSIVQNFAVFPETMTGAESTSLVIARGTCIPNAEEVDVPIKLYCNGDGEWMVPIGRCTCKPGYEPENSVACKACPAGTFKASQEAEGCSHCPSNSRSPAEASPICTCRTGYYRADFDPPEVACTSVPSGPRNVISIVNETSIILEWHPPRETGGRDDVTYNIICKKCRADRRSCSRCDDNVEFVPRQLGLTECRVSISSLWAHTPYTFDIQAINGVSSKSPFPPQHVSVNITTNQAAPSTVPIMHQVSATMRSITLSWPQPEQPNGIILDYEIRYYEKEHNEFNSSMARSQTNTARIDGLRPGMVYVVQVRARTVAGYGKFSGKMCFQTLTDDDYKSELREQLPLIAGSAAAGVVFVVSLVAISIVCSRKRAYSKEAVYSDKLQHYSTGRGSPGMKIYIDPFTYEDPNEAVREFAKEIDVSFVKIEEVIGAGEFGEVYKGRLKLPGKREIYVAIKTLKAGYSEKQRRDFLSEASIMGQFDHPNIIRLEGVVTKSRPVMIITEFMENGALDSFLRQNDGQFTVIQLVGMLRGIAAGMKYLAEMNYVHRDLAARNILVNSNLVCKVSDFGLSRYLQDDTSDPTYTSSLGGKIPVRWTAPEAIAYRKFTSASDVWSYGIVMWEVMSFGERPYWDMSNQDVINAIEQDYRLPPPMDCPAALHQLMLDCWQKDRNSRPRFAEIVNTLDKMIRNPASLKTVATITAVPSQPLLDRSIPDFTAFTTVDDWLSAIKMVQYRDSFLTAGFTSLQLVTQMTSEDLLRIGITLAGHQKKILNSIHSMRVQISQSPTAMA
Sequence of FGFR1 (P11362 whole entry, looked up): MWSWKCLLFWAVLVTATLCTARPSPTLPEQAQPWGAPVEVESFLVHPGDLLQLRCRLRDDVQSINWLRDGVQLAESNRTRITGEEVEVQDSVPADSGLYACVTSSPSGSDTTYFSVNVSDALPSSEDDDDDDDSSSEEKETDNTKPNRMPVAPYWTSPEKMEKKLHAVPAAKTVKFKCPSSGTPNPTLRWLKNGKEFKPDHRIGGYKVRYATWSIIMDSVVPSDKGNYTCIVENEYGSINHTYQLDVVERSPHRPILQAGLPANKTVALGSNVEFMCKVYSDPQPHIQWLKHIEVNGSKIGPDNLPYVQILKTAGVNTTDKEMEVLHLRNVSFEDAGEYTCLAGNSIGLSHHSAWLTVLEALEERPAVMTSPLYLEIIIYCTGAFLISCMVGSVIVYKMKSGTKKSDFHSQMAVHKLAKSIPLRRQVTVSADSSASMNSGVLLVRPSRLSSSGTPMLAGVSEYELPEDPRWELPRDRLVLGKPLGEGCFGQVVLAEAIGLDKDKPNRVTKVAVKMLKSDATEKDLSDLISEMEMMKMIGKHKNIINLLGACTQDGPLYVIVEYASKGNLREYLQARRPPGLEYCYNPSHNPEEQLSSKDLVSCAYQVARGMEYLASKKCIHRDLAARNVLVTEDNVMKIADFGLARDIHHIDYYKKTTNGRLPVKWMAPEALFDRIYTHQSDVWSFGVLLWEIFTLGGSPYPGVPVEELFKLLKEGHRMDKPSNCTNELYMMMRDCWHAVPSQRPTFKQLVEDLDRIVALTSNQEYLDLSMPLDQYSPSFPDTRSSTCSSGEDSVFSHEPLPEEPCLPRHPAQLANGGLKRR
Sequence of Jak2 (O60674 whole entry, looked up): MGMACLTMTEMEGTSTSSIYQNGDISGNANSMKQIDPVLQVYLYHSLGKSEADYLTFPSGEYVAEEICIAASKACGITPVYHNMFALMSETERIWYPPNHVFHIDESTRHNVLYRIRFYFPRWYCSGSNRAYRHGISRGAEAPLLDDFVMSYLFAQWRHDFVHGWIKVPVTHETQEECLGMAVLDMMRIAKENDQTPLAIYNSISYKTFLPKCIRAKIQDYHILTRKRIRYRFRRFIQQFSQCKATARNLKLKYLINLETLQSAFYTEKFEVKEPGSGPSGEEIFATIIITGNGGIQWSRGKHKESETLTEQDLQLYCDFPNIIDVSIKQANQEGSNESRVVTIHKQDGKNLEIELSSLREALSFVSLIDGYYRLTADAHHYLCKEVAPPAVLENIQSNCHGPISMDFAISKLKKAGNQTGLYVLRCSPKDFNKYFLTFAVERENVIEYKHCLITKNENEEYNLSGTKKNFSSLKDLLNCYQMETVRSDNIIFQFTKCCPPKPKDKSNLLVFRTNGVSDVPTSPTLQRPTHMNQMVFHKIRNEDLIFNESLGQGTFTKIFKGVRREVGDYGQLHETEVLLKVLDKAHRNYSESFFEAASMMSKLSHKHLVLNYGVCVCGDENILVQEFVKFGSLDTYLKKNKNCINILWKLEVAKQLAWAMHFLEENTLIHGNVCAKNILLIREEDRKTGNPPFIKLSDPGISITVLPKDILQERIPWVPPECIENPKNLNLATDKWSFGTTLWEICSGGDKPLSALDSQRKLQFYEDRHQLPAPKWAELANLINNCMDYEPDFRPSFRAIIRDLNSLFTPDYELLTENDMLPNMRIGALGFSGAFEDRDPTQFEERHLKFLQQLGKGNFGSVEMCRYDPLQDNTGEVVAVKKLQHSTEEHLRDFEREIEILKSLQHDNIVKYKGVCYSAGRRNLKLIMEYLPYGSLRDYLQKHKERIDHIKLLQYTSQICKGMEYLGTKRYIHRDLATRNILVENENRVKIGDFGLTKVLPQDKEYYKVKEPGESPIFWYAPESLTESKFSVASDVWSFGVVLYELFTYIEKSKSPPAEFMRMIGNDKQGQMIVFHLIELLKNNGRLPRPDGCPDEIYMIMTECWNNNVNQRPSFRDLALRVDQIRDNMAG
Sequence of Fyn (P06241 whole entry, looked up): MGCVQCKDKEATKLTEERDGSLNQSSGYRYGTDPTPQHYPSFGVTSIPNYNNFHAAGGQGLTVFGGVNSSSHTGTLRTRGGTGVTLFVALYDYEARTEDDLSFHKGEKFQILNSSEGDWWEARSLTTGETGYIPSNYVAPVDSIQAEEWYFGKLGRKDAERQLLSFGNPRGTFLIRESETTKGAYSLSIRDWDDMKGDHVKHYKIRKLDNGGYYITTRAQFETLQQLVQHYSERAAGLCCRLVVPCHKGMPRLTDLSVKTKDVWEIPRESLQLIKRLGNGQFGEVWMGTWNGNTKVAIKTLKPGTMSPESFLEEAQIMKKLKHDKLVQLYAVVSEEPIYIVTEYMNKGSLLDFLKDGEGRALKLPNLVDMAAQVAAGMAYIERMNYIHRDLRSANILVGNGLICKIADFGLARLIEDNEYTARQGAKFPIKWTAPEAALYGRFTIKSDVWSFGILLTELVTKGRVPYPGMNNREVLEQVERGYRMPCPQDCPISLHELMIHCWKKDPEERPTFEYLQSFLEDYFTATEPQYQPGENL

Sequence	SH2 binding enrichment (c-Src SH2)	SH2 binding enrichment (Grb2 SH2)	SH2 binding enrichment (SHP2-C SH2)	phosphorylation enrichment (EPHB1)	phosphorylation enrichment (Jak2)	phosphorylation enrichment (EPHB2)	phosphorylation enrichment (FGFR3)	phosphorylation enrichment (c-Src)	phosphorylation enrichment (Fer (mouse))	phosphorylation enrichment (Fyn)	phosphorylation enrichment (Hck)	phosphorylation enrichment (AncSZ)	phosphorylation enrichment (FGFR1)	phosphorylation enrichment (c-Abl (mouse))	phosphorylation enrichment (MERTK)	phosphorylation enrichment (Fes)
VMIYAYLLHRG [PTEN_Y138_C136Y]	0.806	1.34	0.741	0.479	0.733	0.455	0.703	0.46	0.371	0.443	0.697	0.821	0.351	0.748	0.591	0.856
RCFVFYFSFLL [PTEN_Y177_R173C_YF]	1.27	1.97	1.78	0.353	0.821	0.434	0.613	0.591	0.432	0.355	0.426	0.59	0.506	0.732	0.38	0.626
APSHAYHRGVL [ANO1_Y981_G983R]	0.679	0.988	0.899	0.363	0.534	0.355	0.472	0.426	0.411	0.424	0.385	0.507	0.395	0.51	0.38	0.583
GDYYRSLAEVA [YWHAG_Y133_Y133S]	0.699	1.02	0.648	1.68	1.45	1.09	3.26	0.664	0.419	0.916	1.36	1.3	5.42	1.82	0.663	0.75
GADAIYDHINE [UQCR10_Y44]	0.678	0.704	0.561	0.91	0.777	1.03	0.563	4.96	2.82	5.57	6.65	1.03	0.5	0.689	3.14	0.953
SASSSYSRSRS [SRRM4_Y549_R547S]	0.393	0.967	0.638	0.275	0.451	0.487	0.46	0.432	0.386	0.462	0.412	0.555	0.378	0.408	0.447	0.482
SSPMKYQQNVS [EGFEM1P_Y160]	0.432	0.878	0.661	0.319	0.623	0.352	0.408	0.397	0.392	0.339	0.412	0.541	0.334	0.562	0.398	0.592
KEDSAYGSQSV [NFKB2_Y868]	0.558	0.817	0.756	0.502	1.11	0.521	0.584	0.502	0.409	0.535	0.583	0.978	0.428	0.911	0.454	1.07
ASLLPYFPAIM [IPO4_Y518]	0.672	1.15	0.806	0.479	0.802	0.576	0.694	0.457	0.532	0.544	0.484	0.782	0.537	0.626	0.364	0.938
VECHPYFTQPK [AKR1D1_Y199]	0.444	0.765	0.637	0.525	0.819	0.517	0.709	0.779	0.421	0.559	0.515	0.938	0.591	0.617	0.371	1.01
FKDGQYWIRGW [ACSF3_Y466_R471W]	0.47	0.87	0.733	0.624	0.927	0.624	0.551	0.534	0.372	0.513	0.799	0.998	0.609	0.636	0.345	1.13
GSIQQYTYKQE [PRG4_Y1271_I1272T]	0.384	0.604	0.599	0.45	0.806	0.494	0.559	0.444	0.437	0.37	0.483	0.773	0.453	0.731	0.374	0.94
KASRKYYAMKI [AKT3_Y173_G171R]	0.652	1.03	0.79	0.22	0.484	0.304	0.353	0.257	0.589	0.267	0.339	0.416	0.481	0.393	0.5	0.476
GNLLIYTDFGK [HGD_Y166_E168D]	0.765	0.891	0.822	3.06	1.09	1.27	0.702	4.63	0.726	4.75	3.49	1.08	0.682	1.53	3.44	1.27
TTGGFYSYGGG [KRT24_Y120_A115T]	0.945	0.773	0.778	1.18	0.763	1.1	0.664	1.25	4.54	2.56	2.39	1.03	0.528	0.692	13.9	1.04
MFNPCYGLFEY [NEDD4L_Y680_Y679C]	0.641	0.867	0.633	0.739	1.11	0.604	0.752	5.01	1.6	5.24	2.54	1.26	0.616	0.842	1.69	1.32
CEHFSYFGMKA [SLC15A2_Y60_R57H_YF]	0.604	0.801	0.545	0.555	3.82	0.516	0.902	0.673	0.452	0.379	0.444	0.879	1.61	0.605	0.469	0.845

Sequence	SH2 binding enrichment (c-Src SH2)	SH2 binding enrichment (Grb2 SH2)	SH2 binding enrichment (SHP2-C SH2)	phosphorylation enrichment (EPHB1)	phosphorylation enrichment (Jak2)	phosphorylation enrichment (EPHB2)	phosphorylation enrichment (FGFR3)	phosphorylation enrichment (c-Src)	phosphorylation enrichment (Fer (mouse))	phosphorylation enrichment (Fyn)	phosphorylation enrichment (Hck)	phosphorylation enrichment (AncSZ)	phosphorylation enrichment (FGFR1)	phosphorylation enrichment (c-Abl (mouse))	phosphorylation enrichment (MERTK)	phosphorylation enrichment (Fes)
VPEANYTSDEE [STK33_Y439_D436E]	0.46	0.831	0.579	0.897	1.99	0.691	0.947	0.614	0.721	0.665	0.576	1.42	0.607	1.17	0.699	1.52
LECEWYKNGVK [TTN_Y2112_P2107L]	0.322	0.613	0.48	1.36	1.39	0.923	1.01	0.576	0.771	0.619	0.931	2.15	0.744	1.16	0.921	2.16
YKGKKYKPLDL [RPL35_Y78]	0.429	0.821	0.955	0.283	0.51	0.391	0.45	0.541	0.537	0.511	0.404	0.462	0.405	0.508	0.581	0.541
ILTLKYLIEHG [ACTG1_Y69_P70L]	0.88	1.25	1.03	0.689	1.08	0.618	0.839	0.483	0.562	0.526	0.557	1.05	0.466	0.84	0.463	1.32
ISDNAYQYMLT [MYH7_Y162]	1.13	0.812	0.873	0.659	1.17	0.496	2.15	0.975	9.28	0.553	0.577	1.51	3.44	0.704	2.15	1.23
DLDATYRPMFS [JUP_Y701_M697L_YF]	0.5	0.72	0.713	0.636	0.673	0.557	0.557	0.542	0.489	0.522	0.686	0.722	0.491	0.662	0.33	0.85
LTGIAYGLPHW [SLC22A14_Y291_S292G]	0.768	0.89	1.23	0.56	0.924	0.558	0.618	0.574	0.424	0.578	0.631	1.16	0.523	0.705	0.508	1.25
TDIVAYSGWVQ [SPTBN2_Y477_R480W]	0.642	0.881	1.2	0.684	0.82	0.532	0.779	1.4	1.38	0.824	1.53	1.03	0.573	1.75	0.621	1.02
DRLASDLDKVR [KRT10_Y160_Y160D]	0.505	0.842	0.681	0.372	0.537	0.471	0.469	0.363	0.416	0.448	0.425	0.603	0.439	0.443	0.362	0.661
IYRAAYFGVYD [SLC25A4_Y191]	2.12	0.92	1.19	1.2	0.982	1.33	0.771	4.49	0.937	5.53	5.56	1.15	0.554	0.955	1.26	1.21
PLDGEYSTLQI [TP53_Y327_F328S]	0.433	0.399	0.272	1.27	1.33	1.17	1.18	2.97	3.56	2.2	3.08	2.13	1.77	1.33	0.75	1.53
AEEKEYHAEGG [EGFR_Y869]	0.471	0.924	0.748	0.623	0.908	0.593	0.596	0.486	0.572	0.536	0.451	1.09	0.474	0.653	0.403	1.05
ERQIRYLNHQL [CEP152_Y268]	0.512	0.842	0.683	0.373	0.413	0.354	0.39	0.399	0.347	0.396	0.4	0.557	0.412	0.523	0.382	0.527
ERPGVYTNVVE [F11_Y608]	6.19	4.93	0.979	0.417	0.519	0.423	0.538	0.442	0.413	0.481	0.463	0.66	0.438	0.513	0.383	0.62
HNLDFYKQTTN [FGFR3_Y648_K650Q_YF]	0.395	0.874	0.488	0.623	0.793	0.494	0.631	0.409	0.409	0.368	0.455	0.948	0.581	0.683	0.581	1.35
HRTLVYGGIFL [FBP1_Y259]	0.358	0.747	0.493	0.677	1.07	0.84	1.01	3.83	1.01	5.36	3.69	1.19	0.704	1.06	0.532	1.38
